{
  "source": "the supplement of paper PMC9112550",
  "about": "“Optimization of the antimicrobial peptide Bac7 by deep mutational scanning” (BMC Biology, 2022);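 note: peptides expressed intracellularly from a pBAD plasmid library in pooled LB shake-flask culture, induced with 0.3% L-arabinose, DNA abundance read by NGS, three biological replicates, DESeq2 with apeglm shrinkage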",
  "data": [
    {"test_system": "Escherichia coli TOP10", "assay": "shrunken log2 fold change of peptide-encoding DNA abundance (4.5 h post-induction vs induction); higher = less antimicrobial activity (less host growth inhibition)", "settings": "time post-induction: 4.5 h; library: site-saturation at positions 5, 18, 19, 20", "values": [
      {"sequence": "RRIRLRPPRLPRPRPRPEAWPRP", "shrunken log2 fold change": 0.0169},
      {"sequence": "RRIRSRPPRLPRPRPRPVDKPRP", "shrunken log2 fold change": -0.175},
      {"sequence": "RRIRQRPPRLPRPRPRPSRPPRP", "shrunken log2 fold change": 0.37},
      {"sequence": "RRIRERPPRLPRPRPRPEQVPRP", "shrunken log2 fold change": -0.0135},
      {"sequence": "RRIRYRPPRLPRPRPRPQLGPRP", "shrunken log2 fold change": -0.238},
      {"sequence": "RRIRGRPPRLPRPRPRPTAKPRP", "shrunken log2 fold change": 1.92},
      {"sequence": "RRIRNRPPRLPRPRPRPDLNPRP", "shrunken log2 fold change": 0.274},
      {"sequence": "RRIRQRPPRLPRPRPRPDPWPRP", "shrunken log2 fold change": 0.161},
      {"sequence": "RRIRYRPPRLPRPRPRPQDMPRP", "shrunken log2 fold change": 0.000181},
      {"sequence": "RRIRTRPPRLPRPRPRPRAMPRP", "shrunken log2 fold change": 0.41},
      {"sequence": "RRIRCRPPRLPRPRPRPPTVPRP", "shrunken log2 fold change": 0.202},
      {"sequence": "RRIRMRPPRLPRPRPRPNYPPRP", "shrunken log2 fold change": -0.445},
      {"sequence": "RRIRSRPPRLPRPRPRPINHPRP", "shrunken log2 fold change": -0.662},
      {"sequence": "RRIRYRPPRLPRPRPRPEASPRP", "shrunken log2 fold change": -0.0105},
      {"sequence": "RRIRWRPPRLPRPRPRPMREPRP", "shrunken log2 fold change": 1.09},
      {"sequence": "RRIRMRPPRLPRPRPRPNINPRP", "shrunken log2 fold change": -0.356},
      {"sequence": "RRIRHRPPRLPRPRPRPKTCPRP", "shrunken log2 fold change": -0.0999},
      {"sequence": "RRIRNRPPRLPRPRPRPEKLPRP", "shrunken log2 fold change": -0.00804},
      {"sequence": "RRIRDRPPRLPRPRPRPIRYPRP", "shrunken log2 fold change": -0.103},
      {"sequence": "RRIRLRPPRLPRPRPRPVNGPRP", "shrunken log2 fold change": -0.0366},
      {"sequence": "RRIRMRPPRLPRPRPRPYDVPRP", "shrunken log2 fold change": -0.562},
      {"sequence": "RRIRKRPPRLPRPRPRPFMAPRP", "shrunken log2 fold change": 0.0398},
      {"sequence": "RRIRDRPPRLPRPRPRPARTPRP", "shrunken log2 fold change": 0.364},
      {"sequence": "RRIRFRPPRLPRPRPRPDDCPRP", "shrunken log2 fold change": 0.014},
      {"sequence": "RRIRVRPPRLPRPRPRPKWDPRP", "shrunken log2 fold change": 0.0182},
      {"sequence": "RRIRVRPPRLPRPRPRPREKPRP", "shrunken log2 fold change": 0.179},
      {"sequence": "RRIRGRPPRLPRPRPRPAAKPRP", "shrunken log2 fold change": 1.02},
      {"sequence": "RRIRRRPPRLPRPRPRPVQIPRP", "shrunken log2 fold change": 0.14},
      {"sequence": "RRIRVRPPRLPRPRPRPTCLPRP", "shrunken log2 fold change": 0.332},
      {"sequence": "RRIRKRPPRLPRPRPRPMHCPRP", "shrunken log2 fold change": 3.88},
      {"sequence": "RRIRKRPPRLPRPRPRPHEEPRP", "shrunken log2 fold change": 0.0526},
      {"sequence": "RRIRARPPRLPRPRPRPWYQPRP", "shrunken log2 fold change": -0.287},
      {"sequence": "RRIRDRPPRLPRPRPRPSCSPRP", "shrunken log2 fold change": -0.253},
      {"sequence": "RRIRARPPRLPRPRPRPGRFPRP", "shrunken log2 fold change": 1.11},
      {"sequence": "RRIRVRPPRLPRPRPRPIWEPRP", "shrunken log2 fold change": -0.00136},
      {"sequence": "RRIRERPPRLPRPRPRPKHMPRP", "shrunken log2 fold change": -0.21},
      {"sequence": "RRIRDRPPRLPRPRPRPREAPRP", "shrunken log2 fold change": -0.0547},
      {"sequence": "RRIRVRPPRLPRPRPRPMKDPRP", "shrunken log2 fold change": -0.109},
      {"sequence": "RRIRNRPPRLPRPRPRPETFPRP", "shrunken log2 fold change": 0.00884},
      {"sequence": "RRIRVRPPRLPRPRPRPAPCPRP", "shrunken log2 fold change": 0.168},
      {"sequence": "RRIRNRPPRLPRPRPRPLYYPRP", "shrunken log2 fold change": -0.0384},
      {"sequence": "RRIRARPPRLPRPRPRPDLQPRP", "shrunken log2 fold change": 0.79},
      {"sequence": "RRIRKRPPRLPRPRPRPFADPRP", "shrunken log2 fold change": 0.00902},
      {"sequence": "RRIRWRPPRLPRPRPRPEGDPRP", "shrunken log2 fold change": 0.166},
      {"sequence": "RRIRIRPPRLPRPRPRPDELPRP", "shrunken log2 fold change": 0.0623},
      {"sequence": "RRIRARPPRLPRPRPRPHKDPRP", "shrunken log2 fold change": 0.0954},
      {"sequence": "RRIRWRPPRLPRPRPRPDARPRP", "shrunken log2 fold change": -0.018},
      {"sequence": "RRIRCRPPRLPRPRPRPTTHPRP", "shrunken log2 fold change": -0.0573},
      {"sequence": "RRIRGRPPRLPRPRPRPWHAPRP", "shrunken log2 fold change": 0.281},
      {"sequence": "RRIRARPPRLPRPRPRPQMDPRP", "shrunken log2 fold change": 0.099},
      {"sequence": "RRIRSRPPRLPRPRPRPFWRPRP", "shrunken log2 fold change": 0.0559},
      {"sequence": "RRIRDRPPRLPRPRPRPVSMPRP", "shrunken log2 fold change": -0.0171},
      {"sequence": "RRIRCRPPRLPRPRPRPWDYPRP", "shrunken log2 fold change": 0.00188},
      {"sequence": "RRIRERPPRLPRPRPRPVSKPRP", "shrunken log2 fold change": -0.201},
      {"sequence": "RRIRIRPPRLPRPRPRPQGTPRP", "shrunken log2 fold change": -0.272},
      {"sequence": "RRIRRRPPRLPRPRPRPQLFPRP", "shrunken log2 fold change": 2.21},
      {"sequence": "RRIRPRPPRLPRPRPRPIADPRP", "shrunken log2 fold change": 0.0705},
      {"sequence": "RRIRLRPPRLPRPRPRPYIFPRP", "shrunken log2 fold change": -0.549},
      {"sequence": "RRIRRRPPRLPRPRPRPFWAPRP", "shrunken log2 fold change": 0.0811},
      {"sequence": "RRIRDRPPRLPRPRPRPWATPRP", "shrunken log2 fold change": 0.0691},
      {"sequence": "RRIRGRPPRLPRPRPRPYMPPRP", "shrunken log2 fold change": -0.191},
      {"sequence": "RRIRWRPPRLPRPRPRPTRYPRP", "shrunken log2 fold change": -0.104},
      {"sequence": "RRIRVRPPRLPRPRPRPTCWPRP", "shrunken log2 fold change": 0.835},
      {"sequence": "RRIRDRPPRLPRPRPRPYTNPRP", "shrunken log2 fold change": -0.647},
      {"sequence": "RRIRFRPPRLPRPRPRPGSQPRP", "shrunken log2 fold change": -0.117},
      {"sequence": "RRIRLRPPRLPRPRPRPECSPRP", "shrunken log2 fold change": 0.177},
      {"sequence": "RRIRNRPPRLPRPRPRPQNMPRP", "shrunken log2 fold change": -0.233},
      {"sequence": "RRIRRRPPRLPRPRPRPTARPRP", "shrunken log2 fold change": 0.494},
      {"sequence": "RRIRGRPPRLPRPRPRPDLDPRP", "shrunken log2 fold change": 1.21},
      {"sequence": "RRIRDRPPRLPRPRPRPVAFPRP", "shrunken log2 fold change": 0.589},
      {"sequence": "RRIRARPPRLPRPRPRPEHWPRP", "shrunken log2 fold change": 0.261},
      {"sequence": "RRIRCRPPRLPRPRPRPSPKPRP", "shrunken log2 fold change": -0.326},
      {"sequence": "RRIRVRPPRLPRPRPRPRWPPRP", "shrunken log2 fold change": 0.534},
      {"sequence": "RRIRVRPPRLPRPRPRPCCGPRP", "shrunken log2 fold change": -0.248},
      {"sequence": "RRIRARPPRLPRPRPRPNNCPRP", "shrunken log2 fold change": -0.466}
    ]}
  ]
}
